The target of assay [1] is rat trkB (full-length, pCMX-trkB or pLTR-trkB) (rat) (UniProt Q63604).
Assay [2] deals with human low affinity nerve growth factor receptor (LNGFR) (human, UniProt P08138). Nature of the assay: competition of cross-linking, competitor 125I-NT-3, pCMX-LNGFR COS cells.
Assay [3] deals with rat trkB (full-length, pCMX-trkB or pLTR-trkB) (rat, UniProt Q63604). Nature of the assay: DSS cross-linking of 125I-NGF to COS cells transfected with pCMX-trkB. The protocol:
COS-M5 cells were transiently transfected with either the pCMX-LNGFR, pCMX-trkB, or control vector (pCMX) by the DEAE-dextran transfection protocol. Briefly, COS-M5 cells were plated at a density of 1.5 ×10^6 cells per 100 mm plate 24 hours prior to transfection. For transfection, the cells were cultured in serum-free DMEM containing 400 μg/ml of DEAE-dextran, 1 μM chloroquine, 2 mM glutamine, 20 μg/ml insulin, 5 μg/ml transferrin, 33 nM sodium selenite, and 5 μg of the appropriate DNA for 3 hours and 15 minutes at 37° C. in an atmosphere of 5% CO2. The transfection media was aspirated and replaced with phosphate-buffered saline with 10% DMSO for 2 min. Following this DMSO "shock", the COS-M5 cells were placed into DMEM with 10% FBS, 1% each of penicillin and streptomycin, and 2 mM glutamine for 48 hours.
Cells were harvested in phosphate-buffered saline containing 1 mM EDTA, 1 mg/ml glucose and 25 mM HEPES (PBS-versene) and resuspended at an appropriate density (generally 1 ×10^6 cells per ml) in ice-cold binding buffer A (PBS containing 1 mg/ml each of BSA and glucose). pCMX-trkB or pCMX vector transfected COS-M5 cells (4 ×10^5 cells) were incubated on ice with ^125I-labeled neurotrophins (final concentration estimated to be between 0.1 and 0.25 nM) for 90 minutes in the absence or presence of unlabeled NGF, BDNF or NT-3 (see FIGS. 1 and 3). […]

B1: neurotrophin-3 (human NT-3, produced in CHO cells) (ligand)
chain: YAEHKSHRGEYSVCDSESLWVTDKSSAIDIRGHQVTVLGEIKTGNSPVKQYFYETRCKEARPVKNGCRGIDDKHWNSQCKTSQTYVRALTSENNKLVGWRWIRIDTSCVCALSRKIGRT
modifications: radioiodinated (125I, lactoperoxidase method) where used as the labeled ligand
In assay [1], B1 returned a dose-response survival assay of trkB-expressing NIH3T3 cells, concentration at which effects are discernible of 50 pM and a dose-response survival assay of trkB-expressing NIH3T3 cells, effectiveness against BDNF of less than 10 fold. Moreover, the binding result in assay [2] was “binds”.

B2: Murine 2.5S NGF (ligand)
chain: SSTHPVFHMGEFSVCDSVSVWVGDKTTATDIKGKEVTVLAEVNINNSVFRQYFFETKCRASNPVESGCRGIDSKHWNSYCTTTHTFVKALTTDEKQAAWRFIRIDTACVCVLSRKATR
modifications: radioiodinated (125I, lactoperoxidase method) where used as the labeled ligand
For the molecule B2, the binding result in assay [3] is recorded as “no binding”.

B3: brain derived neurotrophic factor (human BDNF, produced in CHO cells) (ligand)
chain: HSDPARRGELSVCDSISEWVTAADKKTAVDMSGGTVTVLEKVPVSKGQLKQYFYETKCNPMGYTKEGCRGIDKRHWNSQCRTTQSYVRALTMDSKKRIGWRFIRIDTSCVCTLTIKRGR
modifications: radioiodinated (125I, lactoperoxidase method) where used as the labeled ligand
Take B3: the dose-response survival assay of trkB-expressing NIH3T3 cells, concentration at which activity is obvious in assay [1] fell in the range of 0.5 to 5 pM. The binding result in assay [2] is “binds”.

The values above are taken from US5843749, “Ehk and Ror tyrosine kinases” (Regeneron Pharmaceuticals, Inc., dated 1998).
